The text below walks through data of patent US20250092426, “CAS ENDONUCLEASES AND RELATED METHODS” (Flagship Pioneering Innovations VII, LLC, published 2025).

The target of this data set is T1, CasEnd-22 (synthetic construct).
T1 chain: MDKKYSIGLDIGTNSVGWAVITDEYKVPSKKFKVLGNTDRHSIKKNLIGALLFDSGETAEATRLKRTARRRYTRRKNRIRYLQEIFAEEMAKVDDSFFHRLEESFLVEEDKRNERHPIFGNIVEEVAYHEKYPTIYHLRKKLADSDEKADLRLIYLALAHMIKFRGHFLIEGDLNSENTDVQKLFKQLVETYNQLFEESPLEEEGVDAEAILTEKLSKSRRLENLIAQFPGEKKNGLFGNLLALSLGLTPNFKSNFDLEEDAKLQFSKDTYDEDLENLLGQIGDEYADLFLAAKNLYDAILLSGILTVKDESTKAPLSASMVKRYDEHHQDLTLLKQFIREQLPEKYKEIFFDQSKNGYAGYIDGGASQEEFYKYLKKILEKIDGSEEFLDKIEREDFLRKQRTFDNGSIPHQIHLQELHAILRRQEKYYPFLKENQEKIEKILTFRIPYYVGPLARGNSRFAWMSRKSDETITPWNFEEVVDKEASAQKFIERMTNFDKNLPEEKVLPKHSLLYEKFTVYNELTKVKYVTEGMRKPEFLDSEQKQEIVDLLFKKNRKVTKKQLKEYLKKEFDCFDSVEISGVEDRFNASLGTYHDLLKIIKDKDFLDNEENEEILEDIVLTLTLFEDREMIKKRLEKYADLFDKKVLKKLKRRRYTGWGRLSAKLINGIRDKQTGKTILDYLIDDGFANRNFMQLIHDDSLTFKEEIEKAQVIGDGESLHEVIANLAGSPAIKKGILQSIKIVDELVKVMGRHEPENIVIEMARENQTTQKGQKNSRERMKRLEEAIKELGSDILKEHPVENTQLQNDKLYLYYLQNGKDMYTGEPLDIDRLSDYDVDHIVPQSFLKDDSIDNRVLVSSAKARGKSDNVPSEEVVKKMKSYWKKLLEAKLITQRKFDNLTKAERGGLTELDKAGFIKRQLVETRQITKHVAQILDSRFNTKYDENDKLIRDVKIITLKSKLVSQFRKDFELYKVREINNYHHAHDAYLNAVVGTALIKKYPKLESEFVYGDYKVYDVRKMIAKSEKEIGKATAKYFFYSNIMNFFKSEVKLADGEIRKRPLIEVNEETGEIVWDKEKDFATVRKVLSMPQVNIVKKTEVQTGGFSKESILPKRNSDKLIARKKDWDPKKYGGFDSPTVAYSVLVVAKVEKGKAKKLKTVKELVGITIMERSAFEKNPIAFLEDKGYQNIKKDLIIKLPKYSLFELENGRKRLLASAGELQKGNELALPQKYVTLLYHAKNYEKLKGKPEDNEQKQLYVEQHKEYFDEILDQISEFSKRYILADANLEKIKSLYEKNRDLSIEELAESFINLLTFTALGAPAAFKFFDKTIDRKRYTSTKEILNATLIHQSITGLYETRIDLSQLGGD
Description: cell_activity; +++; HEK293T; PAM not stated. The method in brief:
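Editing activity was scored as the fraction of GFP+ cells on day 4 by flow cytometry. BFP-expressing HEK293T cells (250,000) received by nucleofection 200 ng plasmid for the RT-Cas fusion protein and 200 ng template RNA plasmid designed to convert BFP to GFP.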

B1: BFP-to-GFP template RNA ; BFP reporter protospacer (ssRNA ; dsDNA)
RNA: GCCGAAGCACUGCACGCCGUGUUUUAGAGCUAGAAAUAGCAAGUUAAAAUAAGGCUAGUCCGUUAUCAACUUGAAAAAGUGGCACCGAGUCGGUGCACCCUGACGUACGGCGUGCAGUGCUU
DNA 1: GCCGAAGCACTGCACGCCGT
DNA 2: ACGGCGTGCAGTGCTTCGGC
On to B1, for which the activity was ≥ 100 % of reference.
